Test results as given in patent US7749968B2, “Peptides for targeting the prostate specific membrane antigen” (The Johns Hopkins University, priority 2002, dated 2010).

Molecular target: T1, Tag-xPSM (Homo sapiens, UniProt Q04609)
T1 construct: made in house; host or cells: Sf-9 insect cells infected with recombinant baculovirus; protein harvested from the media
Test: Tag-xPSM phage display selection (agarose/cellulose), sequencing of selected phage
Assay type: binding
Procedure: 100 μl of S-protein agarose (2× in RPMI 1640+1% Fetal Bovine Serum (FBS) and 100 μl of CBind Resin (10 mg/ml in RPMI 1640+1% FBS) without fusion protein were used to negatively select the original phage display library. 2×10^11 plaque forming units (PFU) of 1.29×10^9 different sequence phage were incubated with each aliquot of resin for 1 hr at 37° C., while rotating. The S-tag agarose was pelleted and supernatant saved as the agarose counter-selected pool. The cellulose resin was transferred onto 200 μl of 9:1 dibutyl phthalate:cyclohexane and the resin pelleted through the organic phase. The aqueous supernatant was saved as the cellulose counter-selected pool. Each counter selected pool was then added to tag-xPSM agarose or cellulose resin and incubated for 1 hr at 37° C., while rotating. The tag-xPSM agarose was pelleted and washed three times in RPMI 1640+1% FBS. The agarose pellet was then saved for phage isolation. The Tag-xPSM cellulose was transferred onto 200 μl of 9:1 dibutyl phthalate:cyclohexane and the resin pelleted through the organic phase. The tube was then snap frozen in liquid nitrogen to isolate the resin pellet. Over 75% of Tag-xPSM remained bound to the cellulose resin through these conditions. The resulting phage-bound tag-xPSM agarose and tag-xPSM cellulose were then resuspended in 200 μl of log phage ER2738 cells and phage allowed to infect 1 hour at room temperature. A small aliquot was taken at this time to quantitate the number of phage bound per round of selection. The remaining PSMA bound phage was then amplified, tittered, and applied to the next round of phage display. There was only one counter-selection round, followed by a total of five positive selection rounds, applying between 10^10 to 10^11 PFU per round. The final round of selection included cross-selections, where selected phage pools from one PSMA background where applied to the other. Individual phage were isolated and sequenced from rounds three through five.
Individual phage plaques were amplified for 5 hours in ER2738 cells at 37° C. Amplified supernatant was incubated 1:1 with PEG/NaCl buffer (20% PEG 8000, 2.5 M NaCl) for 10 minutes at room temperature. Phage were microfuged 10 minutes at 20,000 g, 4° C. The phage pellet was suspended in 100 μl Iodide buffer (10 mM Tris-HCl, pH 8.0, 1 mM EDTA, 4M NaI). Single stranded DNA (ssDNA) was precipitated with 250 μl of 100% ethanol, pelleted, and washed in 70% ethanol. Each ssDNA pellet was suspended in 30 μl 10 mM Tris, pH 7.4. Each phage was sequenced using the Amersham DYE ET mix, by incubating 6 μl ssDNA, 1 μl of 5 μM-96 pill Sequencing Primer ([…]; SEQ ID NO:108), and 8 μl of DYE ET mix in a 96 well PCR plate and amplified by 30 cycles of 95° C. for 20 seconds, 50° C. for 15 seconds, and 60° C. for 1 minute. Sequencing reaction products were spun through G50-fine Sephadex column plates, prepared on Millipore-multiscreen plates. Products were sequenced and analyzed on the MegaBACE capillary sequencer. All sequences, minus the flanking cysteines, were aligned using the Baylor College of Medicine Clustal W1.8 Global Progressive Alignment (available online) with data presented by Boxshade 3.21 software (available online through the Swiss Institute for Bioinformatics).
2×10^11 plaque-forming units (PFU) of the library was incubated with each aliquot of resin for one hour at 37° C., while rotating. The S-tag agarose was pelleted and the supernatant saved as the agarose counter-selected pool. The cellulose resin was transferred onto a 9:1 ratio of dibutyl phthalate:cyclohexane and the resin centrifuged through the organic phase. The aqueous supernatant was saved as the cellulose counter-selected pool. Each counter selected pool was then added to tag-xPSM agarose or cellulose resin, respectively, and incubated for one hour at 37° C., while rotating (see FIG. 2). The Tag-xPSM agarose was pelleted, washed, and saved for phage isolation. […]

T1 sequence (Q04609 44-750 limits assumed): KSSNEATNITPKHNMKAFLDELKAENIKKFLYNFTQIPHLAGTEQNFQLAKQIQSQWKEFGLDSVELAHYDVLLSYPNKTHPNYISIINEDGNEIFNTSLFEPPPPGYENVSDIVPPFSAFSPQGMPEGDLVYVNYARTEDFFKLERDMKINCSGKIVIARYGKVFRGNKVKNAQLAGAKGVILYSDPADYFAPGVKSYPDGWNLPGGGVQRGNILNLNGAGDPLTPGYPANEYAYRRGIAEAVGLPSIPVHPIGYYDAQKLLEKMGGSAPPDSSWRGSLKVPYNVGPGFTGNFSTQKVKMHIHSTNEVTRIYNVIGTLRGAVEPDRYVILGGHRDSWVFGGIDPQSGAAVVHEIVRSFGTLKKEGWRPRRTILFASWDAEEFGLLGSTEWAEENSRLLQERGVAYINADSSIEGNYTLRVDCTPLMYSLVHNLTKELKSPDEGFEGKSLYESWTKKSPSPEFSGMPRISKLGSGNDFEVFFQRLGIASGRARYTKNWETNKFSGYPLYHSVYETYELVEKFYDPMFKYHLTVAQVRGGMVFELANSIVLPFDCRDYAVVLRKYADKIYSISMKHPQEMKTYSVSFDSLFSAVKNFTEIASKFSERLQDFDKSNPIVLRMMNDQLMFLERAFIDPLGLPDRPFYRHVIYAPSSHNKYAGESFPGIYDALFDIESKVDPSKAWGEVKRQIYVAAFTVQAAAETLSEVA

Sequence | Number of times sequence was found, Round 3 (Agarose) | Number of times sequence was found, Round 4 (Agarose) | Number of times sequence was found, Round 5 (Agarose) | Number of times sequence was found, Round 3 (Cellulose) | Number of times sequence was found, Round 4 (Cellulose) | Number of times sequence was found, Round 5 (Cellulose)
CAPNKYKHC [SEQ ID NO:11] | 0/0 | 1 | 0/0 | 0/0 | 0 | 0/0
CDAVRYPVC [SEQ ID NO:20] | 0/0 | 0 | 0/0 | 0/0 | 1 | 0/0
CFPQSSDRC [SEQ ID NO:24] | 1 | 0/0 | 0/0 | 0 | 0/0 | 0/0
CGLPTRTAC [SEQ ID NO:16] | 0/0 | 0 | 0/0 | 0/0 | 1 | 0/0
CHKFQSKMC [SEQ ID NO:17] | 0/0 | 0 | 0/0 | 0/0 | 1 | 0/0
CHTKHASHC [SEQ ID NO:6] | 0/0 | 0/0 | 0 | 0/0 | 0/0 | 1
CHTSLKTHC [SEQ ID NO:14] | 0/0 | 0 | 0/0 | 0/0 | 1 | 0/0
CHTTTDVYC [SEQ ID NO:25] | 1 | 0/0 | 0/0 | 0 | 0/0 | 0/0
CKHSVSPSC [SEQ ID NO:18] | 0/0 | 0 | 0/0 | 0/0 | 1 | 0/0
CKPSMMSYC [SEQ ID NO:8] | 0/0 | 0/0 | 0 | 0/0 | 0/0 | 1
CKPTNQHKC [SEQ ID NO:19] | 0/0 | 0 | 0/0 | 0/0 | 1 | 0/0
CLKSHSHQC [SEQ ID NO:15] | 0/0 | 0 | 0/0 | 0/0 | 1 | 0/0
CLSSNSSLC [SEQ ID NO:28] | 0 | 0/0 | 0/0 | 1 | 0/0 | 0/0
CLSTTISYC [SEQ ID NO:21] | 0/0 | 0 | 0/0 | 0/0 | 1 | 0/0
CNKSSLGTC [SEQ ID NO:13] | 0/0 | 0 | 0/0 | 0/0 | 1 | 0/0
CPIMLSEPC [SEQ ID NO:26] | 1 | 0/0 | 0/0 | 0 | 0/0 | 0/0
CPSVNTKQC [SEQ ID NO:9] | 0/0 | 0/0 | 0 | 0/0 | 0/0 | 1
CQFRHSAQC [SEQ ID NO:23] | 1 | 0/0 | 0/0 | 0 | 0/0 | 0/0
CQTPYDLRC [SEQ ID NO:10] | 0/0 | 0/0 | 0 | 0/0 | 0/0 | 1
CSHNDTRHC [SEQ ID NO:4] | 0/0 | 0/0 | 0 | 0/0 | 0/0 | 1
CSSHSTVHC [SEQ ID NO:7] | 0/0 | 0/0 | 0 | 0/0 | 0/0 | 1
CSTRAPHLC [SEQ ID NO:5] | 0/0 | 0/0 | 0 | 0/0 | 0/0 | 1
CTITSKRTC [SEQ ID NO:2] | 0 | 3/3 | 0 | 1 | 3/3 | 3
CTNSNMHHC [SEQ ID NO:22] | 1 | 0/0 | 0/0 | 0 | 0/0 | 0/0
CTPLSPRYC [SEQ ID NO:12] | 0/0 | 0 | 0/0 | 0/0 | 1 | 0/0
CTSNNSAIC [SEQ ID NO:27] | 0 | 0/0 | 0/0 | 1 | 0/0 | 0/0
